The Kd is a measure of binding affinity in units of concentration. By kon is commonly meant the rate constant with which the complex forms. By koff is commonly meant the first-order rate constant of dissociation.

Experimental findings from patent publication US20240294637A1 (DENDROCYTE BIOTECH, published 2024) are described below.

Experiment [1] addresses CD300f^L4 expressed in CHO cells (isoform of CD300f which includes the amino acid sequence …) (human) (UniProt Q8TDQ1). Briefly: flow cytometry MFI ratio, CD300f^L4 against CD300f^S4 CHO transfectants. On the technique in general: In flow cytometry, cells or beads pass a laser one at a time.
Experiment [2] addresses T1, CD300f-Ig fusion protein (recombinant CD300f-Fc protein, Sino Biologicals) (human, UniProt Q8TDQ1 20-156).
T1 construct: domain: CD300f Ig-like domain; Bought reagent; also called CD300f-Fc recombinant protein; CD300f Ig-like domain; not shown: Ig Fc part (captured by goat anti-human Ig Fc / human IgG Fc capture sensor)
T1 sequence (looked up): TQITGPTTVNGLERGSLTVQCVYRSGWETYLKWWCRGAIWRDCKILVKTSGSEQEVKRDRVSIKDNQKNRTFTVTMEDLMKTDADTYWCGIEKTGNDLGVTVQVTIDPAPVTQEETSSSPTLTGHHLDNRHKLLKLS
Kind of experiment: Bio-Layer Interferometry (BLItz), CD300f-Fc on AHC biosensor, DCR-2 at 8.333, 16.67, 33.33, 66.67 and 0 nM, global 1:1 fit; same value in rows Index 1 to 4. On the procedure:
(§1) DCR-2 was assessed for affinity for CD300f using a BLItz System (Fortebio, Pall Life Sciences). CD300f-Fc recombinant protein was immobilized to a human IgG Fc capture sensor. A five point dilution series of each mAb was tested for association and dissociation. Kinetic rate constants were estimated using BLItz Pro software with a global fitting 1:1 binding model.
(§2) The kinetics of binding of DCR-2 to CD300f-Fc recombinant protein was determined using Bio-Layer Interferometry analysis on a BLItz System (Fortebio, Pall Life Sciences).
Background: In BLI a coated tip is dipped into the sample, and binding shifts an interference pattern.

Experiment [3] addresses T1, CD300f-Ig fusion protein (recombinant …). Briefly: Bio-Layer Interferometry (BLItz), CD300f-Fc on AHC biosensor, DCR-2 at 8.333, 16.67, 33.33, 66.67 and 0 nM, global 1:1 fit; same value in rows Index 1 to 4; Ka Error 7.087e3. The procedure:
as §1, §2

Experiment [4] shares this target. Briefly: Bio-Layer Interferometry (BLItz), CD300f-Fc on AHC biosensor, DCR-2 at 8.333, 16.67, 33.33, 66.67 and 0 nM, global 1:1 fit; same value in rows Index 1 to 4; Kd Error 3.58e-5. On the procedure:
as §1, §2

For experiment [5], the target named is T2, CD300a on CHO transfectant cell surface (UniProt Q9UGN4 18-299, limits assumed).
T2 construct: whole, on cells; Said to be 'similarly expressed in CHO cells'; also called CD300a transfected cells
T2 sequence (looked up): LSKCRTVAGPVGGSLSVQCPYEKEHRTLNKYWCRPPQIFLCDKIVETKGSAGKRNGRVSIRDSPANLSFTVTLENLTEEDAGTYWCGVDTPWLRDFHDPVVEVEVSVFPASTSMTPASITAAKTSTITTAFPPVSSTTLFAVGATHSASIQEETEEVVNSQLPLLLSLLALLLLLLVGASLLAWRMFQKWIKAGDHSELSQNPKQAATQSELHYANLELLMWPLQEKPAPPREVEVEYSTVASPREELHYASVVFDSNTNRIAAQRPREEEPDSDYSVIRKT
Briefly: flow cytometry on CD300a CHO transfectants.

B1: Monoclonal antibody DCR-2 (antibody, V domains shown)
VH: MESGGGLVQPGGPLKLSCAASGFGFSGSWMSWVRQAPGKGLEWIGQINPDSSTINYTPSLKDKFIISRDNAKNTLYLQINKVRSEDTALYYCARRGFFEGYSAWFAYWGQGTLVTV
VL: ILMTQTPKFLLVSAGDRVTITCKASQSVSNDVAWYQQKPGQSPSLLIYYASNRNTGVPDRFTGSGYETDFTFTISTVQAEDLAVYFCQQDYTSPWTFGGGTKLEIKR
notes: also called mAb DCR-2
Take B1: the fold difference in binding compared to CD300f^S4 in experiment [1] was less than 2 fold. For the same molecule, the Kd in experiment [2] was determined as 0.366 nM. Also, the kon in experiment [3] stood at 514000 M⁻¹ s⁻¹. In addition, the koff in experiment [4] is 0.000188 s⁻¹. Moreover, in experiment [5], the binding result was “no binding”.
